Where two headings read alike, the source gives them in different places.
Test: Ratiometric fluorescence glucose titration of fluorescent conjugates
Type: binding
Parameters: key to Shape (fluorescence response to glucose) / Change (fluorescence response to glucose): m, monochromatic; d, dichromatic (i.e. spectral shape change); 0, no change
Conditions: tsGBP2 cysteine scan; for Kd: ratiometric fit at λ1 and λ2
From the text: Semi-synthetic FRSs can be engineered by site-specifically attaching thiol-reactive, environmentally sensitive fluorophores that respond to ligand-mediated conformational changes. Identification of FRS candidates that can be used for sensing applications comprises three steps: • 1. Cysteine scan. Mutant glucose-binding proteins containing single cysteines are constructed for site-specific attachment of thiol-reactive fluorophores. […] Candidate positions fall into three classes: endosteric, replacing a residue that contacts the ligand directly; peristeric, located at the rim of the binding site; allosteric (Marvin et al., 1997, Proc Natl Acad Sci USA, 94, 4366-71; Marvin, 1998, J Am Chem Soc, 120, 7-11), located outside the binding site at sites that undergo local structural changes in concert with the hinge-bending motion. • 2. Fluorophore screening. Thiol-reactive, environmentally sensitive fluorophores are attached to each cysteine mutant prepared in step 1. • 3. Evaluation of the glucose-mediated change of all the fluorescent conjugates prepared in step 2. Responses to ligand binding in which there is both a change in fluorescence emission intensity and spectral shape are essential for chemometric applications, because such changes enable ratiometric measurements. Changes in spectral shape typically are accompanied by a shift in the wavelength of the emission intensity maxima. Three classes of fluorescent responses are possible: • i. No response. • ii. Monochromatic response (emission intensity increases or decreases without a change in spectral shape) • iii.
Determination of temperature- and ligand-dependent fluorescence landscapes. […] Temperatures were advanced in 1K steps.
Determination of emission intensity spectra.
2 For a single glucose-binding site, the fractional saturation is given by […]

[1] = Acrylodan conjugate, read-out: Kd ^appKd
[2] = Acrylodan conjugate, read-out: Kd ^trueKd

Molecule | Shape (fluorescence response to glucose) (Badan conjugate) | Shape (fluorescence response to glucose) (Acrylodan conjugate) | Kd [1] | Kd [2]
A42C Badan: tsGBP2_C42 (SEQ ID NO: 22) Badan conjugate (conjugate, Badan conjugate; tsGBP2_C42 (42C substitution mutant with signal peptide replaced with M and a GGSHHHHHH at C-terminus)) MKLEIFSWWAGDEGPALEALIRLYKQKYPGVEVINATVTGGCGVNAKAVLKTRMLGGDPPDTFQVHAGQELIGTWVVADRMEDLTSLFRQEGWLQAFPKGLIDLLSYKGGIWSVPVNIHRSNVMWYIPAKLKEWGVTPPKTWAEFLATAQTLKRKGLEAPLALGENWTQQHLWESVALATLGADGWNNLWSGKLKFTDPKAVAVWETFGKVLDAANKDAAGLSWQQAVDRVVQGKAAFNIMGDWAAGYMSTTLKLKPGTDFAWTPSPGTSGIFMMLSDSFGLPKGAKNRQNAINWLKLVGSKEGQDTFNPLKGSIAARLDSDPAKYNAYGQSAMKDWKSNRIVGSLVHGAVAPESFMSQFGTVMEIFLQSRNPQAAANAAQAIANQVGLGRGGSHHHHHH | m |  |  | 
Q64C Acrylodan: tsGBP2_C64 (SEQ ID NO: 23) Acrylodan conjugate (conjugate, Acrylodan conjugate; tsGBP2_C64 (64C substitution mutant with signal peptide replaced with M and a GGSHHHHHH at C-terminus)) MKLEIFSWWAGDEGPALEALIRLYKQKYPGVEVINATVTGGAGVNAKAVLKTRMLGGDPPDTFCVHAGQELIGTWVVADRMEDLTSLFRQEGWLQAFPKGLIDLLSYKGGIWSVPVNIHRSNVMWYIPAKLKEWGVTPPKTWAEFLATAQTLKRKGLEAPLALGENWTQQHLWESVALATLGADGWNNLWSGKLKFTDPKAVAVWETFGKVLDAANKDAAGLSWQQAVDRVVQGKAAFNIMGDWAAGYMSTTLKLKPGTDFAWTPSPGTSGIFMMLSDSFGLPKGAKNRQNAINWLKLVGSKEGQDTFNPLKGSIAARLDSDPAKYNAYGQSAMKDWKSNRIVGSLVHGAVAPESFMSQFGTVMEIFLQSRNPQAAANAAQAIANQVGLGRGGSHHHHHH |  | 0 |  | 
H119C Acrylodan: tsGBP2_C119 (SEQ ID NO: 25) Acrylodan conjugate (conjugate, Acrylodan conjugate; tsGBP2_C119 (119C substitution mutant with signal peptide replaced with M and a GGSHHHHHH at C-terminus)) MKLEIFSWWAGDEGPALEALIRLYKQKYPGVEVINATVTGGAGVNAKAVLKTRMLGGDPPDTFQVHAGQELIGTWVVADRMEDLTSLFRQEGWLQAFPKGLIDLLSYKGGIWSVPVNICRSNVMWYIPAKLKEWGVTPPKTWAEFLATAQTLKRKGLEAPLALGENWTQQHLWESVALATLGADGWNNLWSGKLKFTDPKAVAVWETFGKVLDAANKDAAGLSWQQAVDRVVQGKAAFNIMGDWAAGYMSTTLKLKPGTDFAWTPSPGTSGIFMMLSDSFGLPKGAKNRQNAINWLKLVGSKEGQDTFNPLKGSIAARLDSDPAKYNAYGQSAMKDWKSNRIVGSLVHGAVAPESFMSQFGTVMEIFLQSRNPQAAANAAQAIANQVGLGRGGSHHHHHH |  | m | 20 µM | 20 µM
H66C Acrylodan: tsGBP2_C66 (SEQ ID NO: 24) Acrylodan conjugate (conjugate, Acrylodan conjugate; tsGBP2_C66 (66C substitution mutant with signal peptide replaced with M and a GGSHHHHHH at C-terminus)) MKLEIFSWWAGDEGPALEALIRLYKQKYPGVEVINATVTGGAGVNAKAVLKTRMLGGDPPDTFQVCAGQELIGTWVVADRMEDLTSLFRQEGWLQAFPKGLIDLLSYKGGIWSVPVNIHRSNVMWYIPAKLKEWGVTPPKTWAEFLATAQTLKRKGLEAPLALGENWTQQHLWESVALATLGADGWNNLWSGKLKFTDPKAVAVWETFGKVLDAANKDAAGLSWQQAVDRVVQGKAAFNIMGDWAAGYMSTTLKLKPGTDFAWTPSPGTSGIFMMLSDSFGLPKGAKNRQNAINWLKLVGSKEGQDTFNPLKGSIAARLDSDPAKYNAYGQSAMKDWKSNRIVGSLVHGAVAPESFMSQFGTVMEIFLQSRNPQAAANAAQAIANQVGLGRGGSHHHHHH |  | d |  | 
W167C Acrylodan: tsGBP2_C167 (SEQ ID NO: 26) Acrylodan conjugate (conjugate, Acrylodan conjugate; tsGBP2_C167 (167C substitution mutant with signal peptide replaced with M and a GGSHHHHHH at C-terminus)) MKLEIFSWWAGDEGPALEALIRLYKQKYPGVEVINATVTGGAGVNAKAVLKTRMLGGDPPDTFQVHAGQELIGTWVVADRMEDLTSLFRQEGWLQAFPKGLIDLLSYKGGIWSVPVNIHRSNVMWYIPAKLKEWGVTPPKTWAEFLATAQTLKRKGLEAPLALGENCTQQHLWESVALATLGADGWNNLWSGKLKFTDPKAVAVWETFGKVLDAANKDAAGLSWQQAVDRVVQGKAAFNIMGDWAAGYMSTTLKLKPGTDFAWTPSPGTSGIFMMLSDSFGLPKGAKNRQNAINWLKLVGSKEGQDTFNPLKGSIAARLDSDPAKYNAYGQSAMKDWKSNRIVGSLVHGAVAPESFMSQFGTVMEIFLQSRNPQAAANAAQAIANQVGLGRGGSHHHHHH |  | d | 20 µM | 20 µM
H66C Badan: tsGBP2_C66 (SEQ ID NO: 24) Badan conjugate (conjugate, Badan conjugate; tsGBP2_C66 (66C substitution mutant with signal peptide replaced with M and a GGSHHHHHH at C-terminus)) MKLEIFSWWAGDEGPALEALIRLYKQKYPGVEVINATVTGGAGVNAKAVLKTRMLGGDPPDTFQVCAGQELIGTWVVADRMEDLTSLFRQEGWLQAFPKGLIDLLSYKGGIWSVPVNIHRSNVMWYIPAKLKEWGVTPPKTWAEFLATAQTLKRKGLEAPLALGENWTQQHLWESVALATLGADGWNNLWSGKLKFTDPKAVAVWETFGKVLDAANKDAAGLSWQQAVDRVVQGKAAFNIMGDWAAGYMSTTLKLKPGTDFAWTPSPGTSGIFMMLSDSFGLPKGAKNRQNAINWLKLVGSKEGQDTFNPLKGSIAARLDSDPAKYNAYGQSAMKDWKSNRIVGSLVHGAVAPESFMSQFGTVMEIFLQSRNPQAAANAAQAIANQVGLGRGGSHHHHHH | m |  |  | 
H119C Badan: tsGBP2_C119 (SEQ ID NO: 25) Badan conjugate (conjugate, Badan conjugate; tsGBP2_C119 (119C substitution mutant with signal peptide replaced with M and a GGSHHHHHH at C-terminus)) MKLEIFSWWAGDEGPALEALIRLYKQKYPGVEVINATVTGGAGVNAKAVLKTRMLGGDPPDTFQVHAGQELIGTWVVADRMEDLTSLFRQEGWLQAFPKGLIDLLSYKGGIWSVPVNICRSNVMWYIPAKLKEWGVTPPKTWAEFLATAQTLKRKGLEAPLALGENWTQQHLWESVALATLGADGWNNLWSGKLKFTDPKAVAVWETFGKVLDAANKDAAGLSWQQAVDRVVQGKAAFNIMGDWAAGYMSTTLKLKPGTDFAWTPSPGTSGIFMMLSDSFGLPKGAKNRQNAINWLKLVGSKEGQDTFNPLKGSIAARLDSDPAKYNAYGQSAMKDWKSNRIVGSLVHGAVAPESFMSQFGTVMEIFLQSRNPQAAANAAQAIANQVGLGRGGSHHHHHH | m |  |  | 
Q64C Badan: tsGBP2_C64 (SEQ ID NO: 23) Badan conjugate (conjugate, Badan conjugate; tsGBP2_C64 (64C substitution mutant with signal peptide replaced with M and a GGSHHHHHH at C-terminus)) MKLEIFSWWAGDEGPALEALIRLYKQKYPGVEVINATVTGGAGVNAKAVLKTRMLGGDPPDTFCVHAGQELIGTWVVADRMEDLTSLFRQEGWLQAFPKGLIDLLSYKGGIWSVPVNIHRSNVMWYIPAKLKEWGVTPPKTWAEFLATAQTLKRKGLEAPLALGENWTQQHLWESVALATLGADGWNNLWSGKLKFTDPKAVAVWETFGKVLDAANKDAAGLSWQQAVDRVVQGKAAFNIMGDWAAGYMSTTLKLKPGTDFAWTPSPGTSGIFMMLSDSFGLPKGAKNRQNAINWLKLVGSKEGQDTFNPLKGSIAARLDSDPAKYNAYGQSAMKDWKSNRIVGSLVHGAVAPESFMSQFGTVMEIFLQSRNPQAAANAAQAIANQVGLGRGGSHHHHHH | m |  |  | 

— patent US11402384B2 (Duke University, priority 2015, dated 2022)
